Test results taken from the supplement of paper PMC9170038.

What was measured:
[1] = system: MS2 coat protein; test: apparent KD of MS2 coat protein, switch ON state; designed switch direction (-1 OFF switch, 1 ON switch): -1; higher = weaker reporter binding; conditions: FMN input: 0 or 200 uM; Eterna round: R93 (includes R88 designs)
In short: (§1)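 Designed RNA switches were transcribed on-chip from Illumina sequencing clusters. They were then titrated with SNAP-549-labelled MS2 coat protein (twofold steps, 0.7 or 1.5 nM to 3 µM; 0.8–1.5 h to 10–20 min per step) in 100 mM Tris-HCl pH 7.5, 80 mM KCl, 4 mM MgCl2, without or with constant ligand. Apparent KD is the per-design median of normalised cluster binding-curve fits.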

[2] = system: MS2 coat protein; test: apparent KD of MS2 coat protein, switch OFF state (with FMN for OFF switches, without FMN for ON switches); designed switch direction (-1 OFF switch, 1 ON switch): -1; higher = weaker reporter binding; conditions: FMN input: 0 or 200 uM; Eterna round: R93 (includes R88 designs)
In short: as §1

Row | Sequence | apparent KD of MS2 coat protein [1] | apparent KD of MS2 coat protein [2]
1 | AGUUGGCGAGGAUAUACAUGAGGAUCACCCAUGUGAGAGAAAAAAAAGAGAAAAAAAAGUAGAAGGCGCUGACA [Mat - Exclusion 3 - Lego mod - D42] | 42.6 nM | 130 nM
2 | AAACAUGGAGGAUAUACAUGAGGAUCACCCAUGUGUAUGAAAAAAUAUACAAAAGAAUGUAGAAGGCCAUGAAA [Mat - Exclusion 3 - Mayanna mod - D102] | 26.9 nM | 47.8 nM
3 | AUAAGUGCAGGAUAUACGAAAAGCUAGCGAAAGCUAGCGGGACAUGAGGAUCACCCAUGUAGAAGGGCACAAUA [Tetraloop hairpin BlockHead... 61% 6] | 25 nM | 50.3 nM
4 | AAGAAGUGAGGAUAUCGAAGACUGUCGAAAAGACAGUCGAACGAGAAGGCACAUGAGGAUCACCCAUGUAAGAA [Marsupial] | 34.4 nM | 45 nM
5 | AAGAAGGGAGGAUAUACAAAAUAAAAGAAAAGAAAGAAAGAACAUGAGGAUCACCCAUGUAGAAGGCCCAAGAA [Iufni] | 22.3 nM | 21.2 nM
6 | AUAGGCCUAGGAUAUACAUGAGGAUCACCCAUGUUAACACUGCAAUCAAGUUAAUAUUGUAGAAGGAGGAAUAA [JR_Exc003_Sub310] | 26.3 nM | 26.1 nM
7 | AGUCAUACAGGAUAUACAUGAGGAUCACCCAUGUAUAUCCAAAAAAAGUGAUCCUCAUGUAGAAGGGUAUGACA [EX3 203: Super Stable 3] | 12 nM | 8.92 nM
8 | AAAAAACAUGAGGAUCACCCAUGUGAGGAUAUGACGUAAAUAAAGAAAGAAUAAAUCGUCAGAAGGCACAAAAA [Mat - Exclusion 1 - Eli mod - D72] | 31.4 nM | 40.3 nM
9 | AAGAACCUAGGAUAUACAUGAAAGAAAGAAAAGAAAAGAAAACAUGAGGAUCACCCAUGUAGAAGGAGGUAGAA [EteRNA is fun!] | 26.7 nM | 50.5 nM
10 | GGUUGGCGAGGAUAUACAUGAGGAUCACCCAUGUGAGAGAAAAAAGUGAGGAAGAAAAGUAGAAGGCGCUGACG [salish99-ex3-14] | 32 nM | 636 nM
11 | AAAUAGUUAGGAUAUACAUGAGGAUCACCCAUGUGGACUUAUGGCGAGUAAUUUAGUGGUAGAAGGGACUAAAA [EX2 Malc#29] | 46.2 nM | 47 nM
12 | AUAAAACAUGAGGAUCACCCAUGUGAGGAUAUCCAAAAAGAAAGAAAAAAAAAAAAAAGGAGAAGGCACAAUAA [Amethyst 46] | 67.6 nM | 46.7 nM
13 | AGGCUCCUAGGAUAUACUGGCUGGCCUCCACAAAAGAAAAUACAUGAGGAUCACCCAUGUAGAAGGAGGAGUGG [Geesar] | 19.3 nM | 22.7 nM
14 | AAGCUGGUAGGAUAUACUAGGGCAACUAAUGAGCCGAUAGGACAUGAGGAUCACCCAUGUAGAAGGGCCAGAAA [Mat - Exclusion 2 - JL mod - D64] | 74.4 nM | 125 nM
15 | AAGAAUGGAGGAUAUACAUGAGGAUCACCCAUGUAAAAGAAAGAAAGGGAAAAGAAAAGUAGAAGGCCAAAGAA [Hedjkheperre Harsiese] | 46.6 nM | 42.1 nM
16 | AAAGAACAUGAGGAUCACCCAUGUGAGGAUAUACGAGCGUGAGAAAGAUAAAACGAGCGUAGAAGGCACAAGAA [JR_Exclusion1_Sub4] | 43.4 nM | 49.3 nM
17 | AAGAAGUCAGGAUAUGCCAGAGAUCACGAAAGUGAUGAGUAGCAGAAGGGACAUGAGGAUCACCCAUGUAAAGA [Opal 6] | 48.2 nM | 46.5 nM
18 | AAAAAACAUGAGGAUCACCCAUGUGAGGAUAUCUGUAUUCAAUCCUCGGAUUGAAUACAGAGAAGGCACAUGGA [Ex1: 610] | 46.4 nM | 13.8 nM
19 | AAGUAACAUGAGGAUCACCCAUGUGAGGAUAUGAUUUAAGUUGUAAAAGUAAUAAAGGUCAGAAGGUAUGUGAA [Exclusion 1.2] | 30.9 nM | 34.7 nM
20 | UUUAUGUGAGGAUAUCAGUAGUAAAAAAAUAAAAUUACUACUGAGAAGGCACAUGAGGAUCACCCAUGUGAAAA [EX4 340: Super Stable 40] | 61.9 nM | 161 nM
21 | CAAAGUGGAGGAUAUACAUGAGGAUCACCCAUGUAAGGACAAUAAAUAAGAAGAAGAAGUAGAAGGCCACUCAA [e3-2] | 28.9 nM | 40.2 nM
22 | AAGGGACAUGAGGAUCACCCAUGUCAGGAUAUGAUGCGAAUAAAGAAAGAAGAAAGCAUCAGAAGGGACACCAA [58%, Disencluded 3, 4] | 24.4 nM | 33.7 nM
23 | AUAGGCCUAGGAUAUACAUGAGGAUCACCCAUGUUAAUACUUCAAUCAAGAUAAAAGUGUAGAAGGAGGAAUAA [JR_Exc003_Sub306] | 26.7 nM | 30.9 nM

Row | Sequence | apparent KD of MS2 coat protein [1] | apparent KD of MS2 coat protein [2]
24 | GAAAAGUGAGGAUAUAGCAAAGGUCACGAAAGUGACAAAGGCUAGAAGGCACAUGAGGAUCACCCAUGUCCAAG [Mat - Exclusion 4 - Eli mod - D99] | 20.3 nM | 49.9 nM
25 | AAAAAGGAAGGAUAUACGAACAUGUCAAAAGACGUGAAGGGACAUGAGGAUCACCCAUGUAGAAGGUUUAAAAA [JL Wide Open 25] | 39.3 nM | 18.6 nM
26 | AAAUGCUGAGGAUAUACAUGAGGAUCACCCAUGUAAAAUAAAUAAUGGGUGUAAACGUGUAGAAGGCAGCAUAA [Exclusion 3.14d (FMN+ favored )] | 33.8 nM | 16.8 nM
27 | AAAAAUGGAGGAUAUACAUGAGGAUCACCCAUGUGUAACUAUACUAAACACAAAAAAAGUAGAAGGCCAAAAAA [Gilly Gone Silly 8 - Jieux - Exclusion 3] | 32.7 nM | 50 nM
28 | AAGAAUGCAGGAUAUACAUGAGGAUCACCCAUGUAAAAGAAAGAAGGGAAAGAGAAAAGUAGAAGGGCAAAGAA [Bakare Tantamani] | 36 nM | 47.2 nM
29 | AGCAAACAUGAGGAUCACCCAUGUUAGGAUAUGAACGAAAAUAAAUAAAAAUAAAAGUUCAGAAGGGACGAGCA [66%, Wbt, 28] | 28.1 nM | 37.7 nM
30 | AAAGGAUCAGGAUAUGUGUGGAAAAAGUGUAUUCAAAAAAAACAUGAGGAUCACCCAUGUAGAAGGGAUCCAAA [Mod of 2Normal (20/19) by Nando, Round 1] | 298 nM | 397 nM
31 | CGCUAGUCAGGAUAUACGAACAUGUCAAAAGACGUGAAGGGACAUGAGGAUCACCCAUGUAGAAGGGACUAGCG [Mat - Exclusion 2 - JL mod - D4] | 30.2 nM | 131 nM
32 | AAACGUAGAGGAUAUACGAAAAGAUUACGAAAGUAAUCGGGACAUGAGGAUCACCCAUGUAGAAGGCUACGAAA [Mod2 of Meechl 64% 3] | 27.1 nM | 61 nM
33 | GAAAUGUCAGGAUAUGCGAAGGCGUCUGAUAGACGAGGAUAGCAGAAGGGACAUGAGGAUCACCCAUGUAAAAA [Opal 13] | 117 nM | 220 nM
34 | AACAGGUCAGGAUAUGUGGAAAAAAUAAAAAAAAUAAAAACACAGAAGGGACAUGAGGAUCACCCAUGUAAAUA [May 22] | 58 nM | 114 nM
35 | AGCUAGUCAGGAUAUACAAAAAUGAUAGAAGACGUAAGGGAACAUGAGGAUCACCCAUGUAGAAGGGACUAGCA [Diamond 44] | 41 nM | 129 nM
36 | AAAAAGCGAGGAUAUACAUGAGGAUCACCCAUGUGAAAAAAAAAAUAAUAAAUAAAAGGUAGAAGGCGCAAAAA [V1] | 72 nM | 87.9 nM
37 | ACAAACCGAGGAUAUACAUGAGGAUCACCCAUGUAGACGAACACAUGCGUCAUCACCAGUAGAAGGUGGAAAAC [Telaandi] | 29.9 nM | 26.3 nM
38 | AACAUGUCAGGAUAUGUAAAAAAAAAAAAAAAAAAAAAAAUACAGAAGGGACAUGAGGAUCACCCAUGUCAGGG [EX4 391: Minimal 3] | 69.8 nM | 55.3 nM
39 | AGUCAUACAGGAUAUACAUGAGGAUCACCCAUGUUUAUCCUAAAAUAAAAAAAAACAUGUAGAAGGGUAUGACA [EX3 215: Super Stable 15] | 15.1 nM | 14.1 nM
40 | AAGGGACAUGAGGAUCACCCAUGUUAGGAUAUGCAAACAACAAACAACAAACAACAAAGCAGAAGGGACAAAAA [63%, Olong, 6] | 30.5 nM | 28.8 nM
41 | AGAAAACAUGAGGAUCACCCAUGUGAGGAUAUCGAUGUCCAAGACCUGGUGCGGGACUCGAGAAGGCACUGGGA [salish99-ex1-92] | 41.4 nM | 44.8 nM
42 | AAAGGACAAGGAUAUACAUGAGGAUCACCCAUGUAAAAAACAUAAUAAAAUAACUUAUGUAGAAGGUGUCCAAA [Mat - Exclusion 3 - Eli mod - D99] | 23.1 nM | 57.1 nM
43 | GGAAAACAUGAGGAUCACCCAUGUAAGGAUAUGCAAAAAAAGGAUAUAGAAGGAAAAAGCAGAAGGUACAAAGG [salish99-ex1-24] | 30.6 nM | 55.5 nM
44 | AAGAAGCUAGGAUAUACAAAAUAAAAGAAAAGAAAGAAAGAACAUGAGGAUCACCCAUGUAGAAGGAGCAAGAA [Sebkay] | 31.3 nM | 21.4 nM
45 | AAAAAGUCAGGAUAUGUCAAAAGUCACAAAAGUGACAAAAGACAGAAGGGACAUGAGGAUCACCCAUGUAAAAA [Mod of Eli] | 53.1 nM | 46.1 nM
